Data reported in patent US20150344570A1 (published 2015).

T1: FcγRIIa H (human, UniProt P12318 34-217)
T1 construct: extracellular domain; also called FcγRIIa type H; 2aH; not shown: His tag at the C terminus
T1 sequence (looked up): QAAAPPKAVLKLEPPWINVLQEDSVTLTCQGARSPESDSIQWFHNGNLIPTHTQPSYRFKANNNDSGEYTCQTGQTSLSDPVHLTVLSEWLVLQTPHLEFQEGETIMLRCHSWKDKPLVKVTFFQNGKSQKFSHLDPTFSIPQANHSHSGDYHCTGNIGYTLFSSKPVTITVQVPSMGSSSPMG

T2: FcγRIIb (human, UniProt P31994 43-217)
T2 construct: extracellular domain; also called 2b; not shown: His tag at the C terminus
T2 sequence (looked up): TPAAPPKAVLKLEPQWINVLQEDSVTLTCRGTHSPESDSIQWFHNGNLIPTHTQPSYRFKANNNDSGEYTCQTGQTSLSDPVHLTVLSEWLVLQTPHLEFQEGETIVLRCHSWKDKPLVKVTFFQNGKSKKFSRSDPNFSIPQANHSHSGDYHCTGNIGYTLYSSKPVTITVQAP


How the values were obtained:
[1] = biological target: T1, FcγRIIa H; assay: SPR (Biacore), antibody captured, FcγR as analyte; binding relative to GpH7-A5/GpH7-B3/GpL16-k0 = 100
[2] = biological target: T2, FcγRIIb; assay: as above
[3] = biological target: T1, FcγRIIa H; assay: SPR (Biacore); He/Con_2aH divided by He/Con_2b (FcγRIIa H over FcγRIIb)

Binder	He/Con_2aH [1]	He/Con_2b [2]	He_2aH/2b (IIaH/IIb) [3]
GpH7-A5/GpH7-B3 variant G236_04F/GpL16-k0 (antibody, human IgG1, kappa, Heterodimerized IgG1; mutation in the GpH7-B3 chain only; also called He Ab) heavy 1: not shown heavy 2: not shown light: DIVMTQSPLSLPVTPGEPASISCQASESLVHSNRNTYLHWYLQKPGQSPQLLIYKVSNRFSGVPDRFSGSGSGTDFTLKISRVEAEDVGVYYCSQNTHVPPTFGQGTKVEIERTVAAPSVFIFPPSDEQLKSGTASVVCLLNNFYPREAKVQWKVDNALQSGNSQESVTEQDSKDSTYSLSSTLTLSKADYEKHKVYACEVTHQGLSSPVTKSFNRGEC	118 % of control	39.3 % of control	3 ratio
GpH7-A5/GpH7-B3 variant L234_13S/GpL16-k0 (antibody, human IgG1, kappa, Heterodimerized IgG1; mutation in the GpH7-B3 chain only; also called He Ab) heavy 1: not shown heavy 2: not shown light: DIVMTQSPLSLPVTPGEPASISCQASESLVHSNRNTYLHWYLQKPGQSPQLLIYKVSNRFSGVPDRFSGSGSGTDFTLKISRVEAEDVGVYYCSQNTHVPPTFGQGTKVEIERTVAAPSVFIFPPSDEQLKSGTASVVCLLNNFYPREAKVQWKVDNALQSGNSQESVTEQDSKDSTYSLSSTLTLSKADYEKHKVYACEVTHQGLSSPVTKSFNRGEC	80.4 % of control	59.3 % of control	1.36 ratio
GpH7-A5/GpH7-B3 variant L234_15Y/GpL16-k0 (antibody, human IgG1, kappa, Heterodimerized IgG1; mutation in the GpH7-B3 chain only; also called He Ab) heavy 1: not shown heavy 2: not shown light: DIVMTQSPLSLPVTPGEPASISCQASESLVHSNRNTYLHWYLQKPGQSPQLLIYKVSNRFSGVPDRFSGSGSGTDFTLKISRVEAEDVGVYYCSQNTHVPPTFGQGTKVEIERTVAAPSVFIFPPSDEQLKSGTASVVCLLNNFYPREAKVQWKVDNALQSGNSQESVTEQDSKDSTYSLSSTLTLSKADYEKHKVYACEVTHQGLSSPVTKSFNRGEC	120 % of control	96.3 % of control	1.25 ratio
GpH7-A5/GpH7-B3 variant G236_05P/GpL16-k0 (antibody, human IgG1, kappa, Heterodimerized IgG1; mutation in the GpH7-B3 chain only; also called He Ab) heavy 1: not shown heavy 2: not shown light: DIVMTQSPLSLPVTPGEPASISCQASESLVHSNRNTYLHWYLQKPGQSPQLLIYKVSNRFSGVPDRFSGSGSGTDFTLKISRVEAEDVGVYYCSQNTHVPPTFGQGTKVEIERTVAAPSVFIFPPSDEQLKSGTASVVCLLNNFYPREAKVQWKVDNALQSGNSQESVTEQDSKDSTYSLSSTLTLSKADYEKHKVYACEVTHQGLSSPVTKSFNRGEC	63.5 % of control	19 % of control	3.34 ratio
GpH7-A5/GpH7-B3 variant G236_14T/GpL16-k0 (antibody, human IgG1, kappa, Heterodimerized IgG1; mutation in the GpH7-B3 chain only; also called He Ab) heavy 1: not shown heavy 2: not shown light: DIVMTQSPLSLPVTPGEPASISCQASESLVHSNRNTYLHWYLQKPGQSPQLLIYKVSNRFSGVPDRFSGSGSGTDFTLKISRVEAEDVGVYYCSQNTHVPPTFGQGTKVEIERTVAAPSVFIFPPSDEQLKSGTASVVCLLNNFYPREAKVQWKVDNALQSGNSQESVTEQDSKDSTYSLSSTLTLSKADYEKHKVYACEVTHQGLSSPVTKSFNRGEC	103 % of control	57.8 % of control	1.79 ratio
GpH7-A5/GpH7-B3 variant G236_12R/GpL16-k0 (antibody, human IgG1, kappa, Heterodimerized IgG1; mutation in the GpH7-B3 chain only; also called He Ab) heavy 1: not shown heavy 2: not shown light: DIVMTQSPLSLPVTPGEPASISCQASESLVHSNRNTYLHWYLQKPGQSPQLLIYKVSNRFSGVPDRFSGSGSGTDFTLKISRVEAEDVGVYYCSQNTHVPPTFGQGTKVEIERTVAAPSVFIFPPSDEQLKSGTASVVCLLNNFYPREAKVQWKVDNALQSGNSQESVTEQDSKDSTYSLSSTLTLSKADYEKHKVYACEVTHQGLSSPVTKSFNRGEC	34.2 % of control	6.8 % of control	5.04 ratio
GpH7-A5/GpH7-B3 variant L234_01G/GpL16-k0 (antibody, human IgG1, kappa, Heterodimerized IgG1; mutation in the GpH7-B3 chain only; also called He Ab) heavy 1: not shown heavy 2: not shown light: DIVMTQSPLSLPVTPGEPASISCQASESLVHSNRNTYLHWYLQKPGQSPQLLIYKVSNRFSGVPDRFSGSGSGTDFTLKISRVEAEDVGVYYCSQNTHVPPTFGQGTKVEIERTVAAPSVFIFPPSDEQLKSGTASVVCLLNNFYPREAKVQWKVDNALQSGNSQESVTEQDSKDSTYSLSSTLTLSKADYEKHKVYACEVTHQGLSSPVTKSFNRGEC	75.6 % of control	50.7 % of control	1.49 ratio
GpH7-A5/GpH7-B3 variant L234_04F/GpL16-k0 (antibody, human IgG1, kappa, Heterodimerized IgG1; mutation in the GpH7-B3 chain only; also called He Ab) heavy 1: not shown heavy 2: not shown light: DIVMTQSPLSLPVTPGEPASISCQASESLVHSNRNTYLHWYLQKPGQSPQLLIYKVSNRFSGVPDRFSGSGSGTDFTLKISRVEAEDVGVYYCSQNTHVPPTFGQGTKVEIERTVAAPSVFIFPPSDEQLKSGTASVVCLLNNFYPREAKVQWKVDNALQSGNSQESVTEQDSKDSTYSLSSTLTLSKADYEKHKVYACEVTHQGLSSPVTKSFNRGEC	120 % of control	99.8 % of control	1.2 ratio
GpH7-A5/GpH7-B3 variant L234_12R/GpL16-k0 (antibody, human IgG1, kappa, Heterodimerized IgG1; mutation in the GpH7-B3 chain only; also called He Ab) heavy 1: not shown heavy 2: not shown light: DIVMTQSPLSLPVTPGEPASISCQASESLVHSNRNTYLHWYLQKPGQSPQLLIYKVSNRFSGVPDRFSGSGSGTDFTLKISRVEAEDVGVYYCSQNTHVPPTFGQGTKVEIERTVAAPSVFIFPPSDEQLKSGTASVVCLLNNFYPREAKVQWKVDNALQSGNSQESVTEQDSKDSTYSLSSTLTLSKADYEKHKVYACEVTHQGLSSPVTKSFNRGEC	47.7 % of control	18.9 % of control	2.53 ratio
GpH7-A5/GpH7-B3 variant G236_08L/GpL16-k0 (antibody, human IgG1, kappa, Heterodimerized IgG1; mutation in the GpH7-B3 chain only; also called He Ab) heavy 1: not shown heavy 2: not shown light: DIVMTQSPLSLPVTPGEPASISCQASESLVHSNRNTYLHWYLQKPGQSPQLLIYKVSNRFSGVPDRFSGSGSGTDFTLKISRVEAEDVGVYYCSQNTHVPPTFGQGTKVEIERTVAAPSVFIFPPSDEQLKSGTASVVCLLNNFYPREAKVQWKVDNALQSGNSQESVTEQDSKDSTYSLSSTLTLSKADYEKHKVYACEVTHQGLSSPVTKSFNRGEC	75.8 % of control	26.8 % of control	2.83 ratio
GpH7-A5/GpH7-B3 variant L234_02A/GpL16-k0 (antibody, human IgG1, kappa, Heterodimerized IgG1; mutation in the GpH7-B3 chain only; also called He Ab) heavy 1: not shown heavy 2: not shown light: DIVMTQSPLSLPVTPGEPASISCQASESLVHSNRNTYLHWYLQKPGQSPQLLIYKVSNRFSGVPDRFSGSGSGTDFTLKISRVEAEDVGVYYCSQNTHVPPTFGQGTKVEIERTVAAPSVFIFPPSDEQLKSGTASVVCLLNNFYPREAKVQWKVDNALQSGNSQESVTEQDSKDSTYSLSSTLTLSKADYEKHKVYACEVTHQGLSSPVTKSFNRGEC	81 % of control	64.9 % of control	1.25 ratio
GpH7-A5/GpH7-B3 variant L234_11K/GpL16-k0 (antibody, human IgG1, kappa, Heterodimerized IgG1; mutation in the GpH7-B3 chain only; also called He Ab) heavy 1: not shown heavy 2: not shown light: DIVMTQSPLSLPVTPGEPASISCQASESLVHSNRNTYLHWYLQKPGQSPQLLIYKVSNRFSGVPDRFSGSGSGTDFTLKISRVEAEDVGVYYCSQNTHVPPTFGQGTKVEIERTVAAPSVFIFPPSDEQLKSGTASVVCLLNNFYPREAKVQWKVDNALQSGNSQESVTEQDSKDSTYSLSSTLTLSKADYEKHKVYACEVTHQGLSSPVTKSFNRGEC	40.8 % of control	16.2 % of control	2.52 ratio

Results, then the binder that gave them:

He/Con_2aH [1]	He/Con_2b [2]	He_2aH/2b (IIaH/IIb) [3]	Binder
136 % of control	39.5 % of control	3.45 ratio	GpH7-A5/GpH7-B3 variant G236_15Y/GpL16-k0 (antibody, human IgG1, kappa, Heterodimerized IgG1; mutation in the GpH7-B3 chain only; also called He Ab) heavy 1: not shown heavy 2: not shown light: DIVMTQSPLSLPVTPGEPASISCQASESLVHSNRNTYLHWYLQKPGQSPQLLIYKVSNRFSGVPDRFSGSGSGTDFTLKISRVEAEDVGVYYCSQNTHVPPTFGQGTKVEIERTVAAPSVFIFPPSDEQLKSGTASVVCLLNNFYPREAKVQWKVDNALQSGNSQESVTEQDSKDSTYSLSSTLTLSKADYEKHKVYACEVTHQGLSSPVTKSFNRGEC
115 % of control	31 % of control	3.72 ratio	GpH7-A5/GpH7-B3 variant G236_07I/GpL16-k0 (antibody, human IgG1, kappa, Heterodimerized IgG1; mutation in the GpH7-B3 chain only; also called He Ab) heavy 1: not shown heavy 2: not shown light: DIVMTQSPLSLPVTPGEPASISCQASESLVHSNRNTYLHWYLQKPGQSPQLLIYKVSNRFSGVPDRFSGSGSGTDFTLKISRVEAEDVGVYYCSQNTHVPPTFGQGTKVEIERTVAAPSVFIFPPSDEQLKSGTASVVCLLNNFYPREAKVQWKVDNALQSGNSQESVTEQDSKDSTYSLSSTLTLSKADYEKHKVYACEVTHQGLSSPVTKSFNRGEC
78.1 % of control	62.5 % of control	1.25 ratio	GpH7-A5/GpH7-B3 variant L234_14T/GpL16-k0 (antibody, human IgG1, kappa, Heterodimerized IgG1; mutation in the GpH7-B3 chain only; also called He Ab) heavy 1: not shown heavy 2: not shown light: DIVMTQSPLSLPVTPGEPASISCQASESLVHSNRNTYLHWYLQKPGQSPQLLIYKVSNRFSGVPDRFSGSGSGTDFTLKISRVEAEDVGVYYCSQNTHVPPTFGQGTKVEIERTVAAPSVFIFPPSDEQLKSGTASVVCLLNNFYPREAKVQWKVDNALQSGNSQESVTEQDSKDSTYSLSSTLTLSKADYEKHKVYACEVTHQGLSSPVTKSFNRGEC
85.7 % of control	45.5 % of control	1.88 ratio	GpH7-A5/GpH7-B3 variant G236_06M/GpL16-k0 (antibody, human IgG1, kappa, Heterodimerized IgG1; mutation in the GpH7-B3 chain only; also called He Ab) heavy 1: not shown heavy 2: not shown light: DIVMTQSPLSLPVTPGEPASISCQASESLVHSNRNTYLHWYLQKPGQSPQLLIYKVSNRFSGVPDRFSGSGSGTDFTLKISRVEAEDVGVYYCSQNTHVPPTFGQGTKVEIERTVAAPSVFIFPPSDEQLKSGTASVVCLLNNFYPREAKVQWKVDNALQSGNSQESVTEQDSKDSTYSLSSTLTLSKADYEKHKVYACEVTHQGLSSPVTKSFNRGEC
93.5 % of control	72.9 % of control	1.28 ratio	GpH7-A5/GpH7-B3 variant L234_05P/GpL16-k0 (antibody, human IgG1, kappa, Heterodimerized IgG1; mutation in the GpH7-B3 chain only; also called He Ab) heavy 1: not shown heavy 2: not shown light: DIVMTQSPLSLPVTPGEPASISCQASESLVHSNRNTYLHWYLQKPGQSPQLLIYKVSNRFSGVPDRFSGSGSGTDFTLKISRVEAEDVGVYYCSQNTHVPPTFGQGTKVEIERTVAAPSVFIFPPSDEQLKSGTASVVCLLNNFYPREAKVQWKVDNALQSGNSQESVTEQDSKDSTYSLSSTLTLSKADYEKHKVYACEVTHQGLSSPVTKSFNRGEC
135 % of control	96.7 % of control	1.39 ratio	GpH7-A5/GpH7-B3 variant G236_13S/GpL16-k0 (antibody, human IgG1, kappa, Heterodimerized IgG1; mutation in the GpH7-B3 chain only; also called He Ab) heavy 1: not shown heavy 2: not shown light: DIVMTQSPLSLPVTPGEPASISCQASESLVHSNRNTYLHWYLQKPGQSPQLLIYKVSNRFSGVPDRFSGSGSGTDFTLKISRVEAEDVGVYYCSQNTHVPPTFGQGTKVEIERTVAAPSVFIFPPSDEQLKSGTASVVCLLNNFYPREAKVQWKVDNALQSGNSQESVTEQDSKDSTYSLSSTLTLSKADYEKHKVYACEVTHQGLSSPVTKSFNRGEC
